These results are taken from patent US8530190 (MERCK SERONO, dated 2013).

Where a chain is given by its changes, count along the chain named. Names may count otherwise.

Test [1] concerns the target T1, rat LH receptor (rat, UniProt P16235 27-700).
T1 construct: whole, on cells; also called LH receptors
The test is described as follows: hormone-receptor complex formation (Table 1D).

In test [2] the target is T2, human FSH receptor (human, UniProt P23945 18-695).
T2 construct: whole, on cells; also called hFSH receptors
T2 sequence (looked up): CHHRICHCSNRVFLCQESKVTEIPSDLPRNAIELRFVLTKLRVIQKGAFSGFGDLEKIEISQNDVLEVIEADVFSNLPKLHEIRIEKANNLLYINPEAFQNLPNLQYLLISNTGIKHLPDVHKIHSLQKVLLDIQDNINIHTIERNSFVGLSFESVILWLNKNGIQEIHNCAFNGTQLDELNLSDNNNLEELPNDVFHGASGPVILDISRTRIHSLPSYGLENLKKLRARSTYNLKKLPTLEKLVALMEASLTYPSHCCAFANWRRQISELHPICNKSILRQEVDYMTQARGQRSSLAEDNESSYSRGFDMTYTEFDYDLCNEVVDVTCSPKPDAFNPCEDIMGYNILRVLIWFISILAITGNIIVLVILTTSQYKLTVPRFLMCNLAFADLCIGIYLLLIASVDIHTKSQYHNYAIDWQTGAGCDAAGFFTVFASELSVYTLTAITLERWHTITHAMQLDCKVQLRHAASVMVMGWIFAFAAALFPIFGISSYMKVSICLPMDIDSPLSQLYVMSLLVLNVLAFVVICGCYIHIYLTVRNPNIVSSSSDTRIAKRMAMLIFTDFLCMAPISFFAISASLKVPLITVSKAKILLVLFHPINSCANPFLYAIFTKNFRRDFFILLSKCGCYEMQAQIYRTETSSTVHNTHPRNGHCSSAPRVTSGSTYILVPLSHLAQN
The test is described as follows: hormone-receptor complex formation (Table 1D).

Test [3] deals with T1, rat LH receptor. The test is described as follows: inhibition of radiolabeled hCG binding to LH receptors (FIG. 22).
In test [4] the target is T1, rat LH receptor. The test is described as follows: inhibition of radiolabeled hCG binding to LH receptors (FIG. 23).
For test [5], the target named is T1, rat LH receptor. The test is described as follows: receptor binding and signal transduction assays.
For test [6], the target named is T2, human FSH receptor. The test is described as follows: receptor binding and signal transduction assays.
Test [7] concerns the target T1, rat LH receptor. The test is described as follows: inhibition of 125I-hCG binding to CHO cells expressing LH receptors (FIG. 17).
Text: (§1) These employed CHO cells that had been transfected with the genes encoding the LH receptor cDNA and that therefore express functional LH receptors on their surfaces.
Test [8] addresses T1, rat LH receptor. The test is described as follows: inhibition of 125I-hCG binding to 200,000 CHO cells that express LH receptors (FIG. 6).
Text: as §1
For test [9], the target named is T1, rat LH receptor. The test is described as follows: competition with radiolabeled hCG on CHO cells expressing LH receptors (FIG. 18).
Text: as §1
For test [10], the target named is T1, rat LH receptor. The test is described as follows: inhibition of 125I-hCG binding to CHO cells expressing LH receptors (FIG. 30).
Text: as §1

T1 sequence (P16235 27-700): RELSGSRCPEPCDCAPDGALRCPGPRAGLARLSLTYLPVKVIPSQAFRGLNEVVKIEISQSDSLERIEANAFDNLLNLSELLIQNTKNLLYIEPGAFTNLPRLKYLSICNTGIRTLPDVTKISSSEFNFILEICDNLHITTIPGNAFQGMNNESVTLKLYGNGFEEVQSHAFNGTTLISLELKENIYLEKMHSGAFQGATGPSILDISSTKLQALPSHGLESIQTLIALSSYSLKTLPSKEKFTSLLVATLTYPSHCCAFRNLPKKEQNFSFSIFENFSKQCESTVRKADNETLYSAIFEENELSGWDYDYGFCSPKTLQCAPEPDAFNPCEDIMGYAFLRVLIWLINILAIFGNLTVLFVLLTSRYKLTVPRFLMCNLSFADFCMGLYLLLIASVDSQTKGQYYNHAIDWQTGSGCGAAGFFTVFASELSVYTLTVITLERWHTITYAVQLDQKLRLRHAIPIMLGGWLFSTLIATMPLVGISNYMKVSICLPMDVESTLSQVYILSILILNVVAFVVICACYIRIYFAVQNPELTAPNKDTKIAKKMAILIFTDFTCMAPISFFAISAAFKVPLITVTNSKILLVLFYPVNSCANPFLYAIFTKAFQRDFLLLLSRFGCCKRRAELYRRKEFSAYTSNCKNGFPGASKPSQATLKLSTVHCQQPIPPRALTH

B1: CF101-109 (ligand)
chain 1: not shown
chain 2: SKEPLRPRCRPINATLAVEKEGCPVCITVNTTICAGYCPTMTRVLQGVLPALPQVVCNYRDVRFESIRLPGCPRGVNPVVSYAVALSCQCALCRRSTTDCTVRGLGPSYCDDPRFQDSSSSKAPPPSLPSPSRLPGPSDTPILPQ
Take B1: the binding result with rat LH receptor [1] and with human FSH receptor [2] was “binds” each time.

B2: CFC101-114(α51-β99) (ligand)
chain 1: not shown
chain 2: B1 chain 2 with D99C, D111S, D112F, P113G, R114E
notes: Intersubunit disulfide αCys51-βCys99; also called CFC101(α51-β99)
On to B2, for which the “fold less active than CFC101-114 in inhibiting radiolabeled hCG binding” value with rat LH receptor [3] is roughly 100 fold.

B3: CFC101-114(α-βD99C) (ligand)
chain 1: not shown
chain 2: B1 chain 2 with D99C, D111S, D112F, P113G, R114E
In the case of B3, in the test with rat LH receptor [3], the binding result was “binds”.

B4: CFC101-114(αK51C-β) (ligand)
chain 1: not shown
chain 2: B1 chain 2 with D111S, D112F, P113G, R114E
In the case of B4, the binding result with rat LH receptor [3] was “binds”.

B5: CFC101-114(αK51A-β) (ligand)
chain 1: not shown
chain 2: B1 chain 2 with D111S, D112F, P113G, R114E
notes: built on the mature α-subunit entry
With B5, the binding result in the test with rat LH receptor [4] was “binds”.

B6: CFC101-114 (ligand)
chain 1: not shown
chain 2: B1 chain 2 with D111S, D112F, P113G, R114E
notes: also called bifunctional hCG/hFSH chimeric analog
Regarding B6, the binding result with rat LH receptor [5] and in the test with human FSH receptor [6] was “binds” each time.

B7: hCG(α-βD99C) (ligand)
chain 1: not shown
chain 2: B1 chain 2 with D99C, T101G, V102G, R103P, G104K, L105D, G106H, S108L, Y109T
notes: also called hCG(α-β99)
Take B7: the binding result with rat LH receptor [7] is reported as “binds”.

B8: CFC101-114(α31-β37) (ligand)
chain 1: not shown
chain 2: B1 chain 2 with Y37C, D111S, D112F, P113G, R114E
notes: Intersubunit disulfide αCys31-βCys37
B8: the binding result with rat LH receptor [5] and with human FSH receptor [6] was “binds” throughout.

B9: hCG(α31-β37) (ligand)
chain 1: not shown
chain 2: B1 chain 2 with Y37C, T101G, V102G, R103P, G104K, L105D, G106H, S108L, Y109T
notes: Intersubunit disulfide αCys31-βCys37; also called hCG3(α31-β37); crosslinked hCG analog
As to B9, the binding result with rat LH receptor [8] was “binds”.

B10: hCG(αK51A-β) (ligand)
chain 1: not shown
chain 2: B1 chain 2 with T101G, V102G, R103P, G104K, L105D, G106H, S108L, Y109T
notes: as for B5
On to B10, for which the binding result in the test with rat LH receptor [9] is “binds”.

B11: hCG(α31-β37, α51-β99) (ligand)
chain 1: not shown
chain 2: B1 chain 2 with Y37C, D99C, T101G, V102G, R103P, G104K, L105D, G106H, S108L, Y109T
notes: Two intersubunit disulfides; also called α(C7S,K51C) + hCGβ′(Y37C,D99C)
In the case of B11, the binding result with rat LH receptor [10] was “binds”.
